Here are results for seven molecules from US20110064740A1 (GlaxoSmithKline, published 2011).

For experiment [1], the target named is T1, human beta-amyloid peptide (1-42) (human, UniProt P05067 672-713).
T1 construct: domain: beta-amyloid peptide (1-42); Unlabelled peptide: amine-coupled to a CM5 chip (Method A(ii)) or in solution as analyte (Method B); also called beta-amyloid (1-42)
The experiment is described as follows: SPR Biacore 3000, Method B: antibody captured, β-amyloid as analyte. As for the experimental part:
(§1) In the second instance the assay was reversed, in that antibodies were first captured to a level of 1000-2500 resonance units on an anti-mouse IgG polyclonal antibody surface (for recombinant mouse 2E7 MAb) or a protein A surface (for humanized H2L1) of a CM5 biosensor chip. Freshly prepared beta-amyloid (1-40) or (1-42) was diluted down in HBS-EP buffer and passed over the captured-antibody surface at concentrations ranging from 4-500 nM (Table 10C and 10D).
(§2) In both methods, regeneration was via a pulse of 100 mM H₃PO₄, and for Table 10A data also followed by a pulse of 50 mM NaOH. […] All runs were double referenced against buffer blank injections. Analysis was carried out using the Biacore™ analysis software BIAevaluation version 4.1.

For experiment [2], the target named is T2, human beta-amyloid peptide (1-40) (human, UniProt P05067 672-711).
T2 construct: domain: beta-amyloid peptide (1-40); Unlabelled peptide: amine-coupled to a CM5 chip (Method A(ii)) or in solution as analyte (Method B); also called beta-amyloid (1-40)
The experiment is described as above. The procedure:
as §1, §2

Experiment [3] deals with T3, human Aβ peptide (1-40) biotinylated at the C terminus (human, UniProt P05067 672-711, biotinylated at the C-terminus).
T3 construct: domain: β-amyloid peptide (1-40); Numbers 1-40 count on the β-amyloid peptide, not on APP; also called beta-amyloid 1-40 peptide (biotinylated at the C-terminus); streptavidin-captured beta-amyloid (1-40)
As to the kind of experiment: Aβ binding ELISA, human Aβ (1-40) biotinylated at the C terminus.

Experiment [4] has as its target T4, human Aβ peptide (length not stated) (human, UniProt P05067 672-711).
T4 construct: also called β-amyloid in solution
The experiment is described as follows: competition ELISA, β-amyloid in solution pre-incubated with the antibody; competitor: immobilised mouse 2E7; Experiment 1. As for the experimental part: (§3) 2) β-amyloid in solution; a constant concentration of β-amyloid was pre-incubated with a dilution series of humanised 2E7 antibody variants—the mixture including complexed and free amyloid was added for a short time to wells containing immobilised mouse 2E7 MAb. The amount of free β-amyloid that was still available for binding the immobilised parental 2E7 MAb was then detected.

For experiment [5], the target named is T3, human Aβ peptide (1-40) biotinylated at …. The experiment is described as follows: SPR Biacore 3000, Method A(i): C-terminally biotinylated β-amyloid 1-40 on streptavidin chip, antibody as analyte; Run 2. The procedure: (§4) (i) Briefly, <20 resonance units of beta-amyloid 1-40 peptide (biotinylated at the C-terminus) were captured on a streptavidin biosensor chip (as used for Table 10A). The antibodies were diluted down in HBS-EP buffer and passed over the streptavidin/beta-amyloid surface at concentrations ranging from 0.001 nM-8 nM (for Table 10A). Two separate runs were carried out; each run was carried out on a new streptavidin/beta-amyloid surface. Runs 1 and 2 were essentially the same though there were some differences in the parameters used; Run 1 was carried out using a chip surface on which 16 RU's of beta-amyloid were captured, and antibody concentrations of 0.001 nM-8 nM were used, an association time of 4 minutes and a dissociation time of 20 minutes were used at a flow rate of 50 μl per minute. For Run 2, less than 10 RU's of beta-amyloid were captured and antibody concentrations of 0.003125 nM-8 nM were used. The flow rate and association times were the same as Run 1, however the dissociation time was reduced to 15 minutes. (ii) Beta amyloid (1-40) and (1-42) were amine-coupled on different surfaces of a CM5 biosensor chip to a level of <20 resonance units (as used for Table 10B). The antibodies were diluted down in HBS-EP buffer and passed over the biosensor/beta-amyloid surface at concentrations ranging from 1 nM-64 nM (as used for Table 10B).
as §2

Experiment [6] shares this target. As to the kind of experiment: SPR Biacore 3000, Method A(i): C-terminally biotinylated β-amyloid 1-40 on streptavidin chip, antibody as analyte; Run 1. The procedure:
as §4, §2

Experiment [7] has the same target. The experiment is described as follows: competition ELISA, biotinylated human Aβ (1-40) on streptavidin plate; competitor: mouse 2E7 at constant concentration; Experiment 2. The procedure: (§5) Two types of competition ELISA were established in order to compare the Aβ binding activity of the three humanised variants compared to the 2E7 chimeric antibody. 1) Immobilised β-amyloid; biotinylated human Aβ peptide (1-40) was immobilized through Streptavidin on ELISA plates Mouse 2E7 antibody was added at a constant concentration along with a dilution series of 2E7-derived humanised variant antibodies. Bound mouse 2E7 MAb was then detected with anti-mouse IgG conjugate.

For experiment [8] the target is unchanged. The experiment is described as follows: competition ELISA, biotinylated human Aβ (1-40) on streptavidin plate; competitor: mouse 2E7 at constant concentration; Experiment 1. As for the experimental part:
as §5

The target is the same in experiment [9]. As to the kind of experiment: Aβ binding ELISA, human Aβ (1-40) biotinylated at the C terminus. This is another data set of the same source.
Experiment [10] shares this target. The experiment is described as follows: SPR Biacore 3000, Method A(i): C-terminally biotinylated β-amyloid 1-40 on streptavidin chip, antibody as analyte; Average(SD) of two runs. The procedure:
as §4, §2

The target is the same in experiment [11]. As to the kind of experiment: Aβ binding ELISA, human Aβ (1-40) biotinylated at the C terminus. This is another data set of the same source.
The target in experiment [12] is T4, human Aβ peptide (length not stated). The experiment is described as follows: competition ELISA, β-amyloid in solution pre-incubated with the antibody; competitor: immobilised mouse 2E7; Experiment 2. The procedure:
as §3

Experiment [13] addresses T3, human Aβ peptide (1-40) biotinylated at …. The experiment is described as follows: Aβ binding ELISA with culture supernatant, Aβ peptide (1-40).

T1 sequence (P05067 672-713 limits assumed): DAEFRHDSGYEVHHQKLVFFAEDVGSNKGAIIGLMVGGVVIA
T4 sequence (P05067 672-711): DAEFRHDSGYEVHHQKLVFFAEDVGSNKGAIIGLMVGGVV
T3 sequence (P05067 672-711 limits assumed): as the sequence (P05067 672-711) above
T2 sequence (P05067 672-711 limits assumed): as the sequence (P05067 672-711) above

B1: 2F11, an identical sequence clone to mouse 2E7 MAb (antibody, V domains shown)
VH: EVKLVESGGGLVQPGGSLKLSCAVSGFTFSDNGMAWVRQAPRKGPEWIAFISNLAYSIDYADTVTGRFTISRDNAKNTLYLEMSSLRSEDTAMYYCVSGTWFAYWGQGTLVTVSA
VL: DVVLTQTPLSLPVSLGDQASISCRVSQSLLHSNGYTYLHWYLQKPGQSPKLLIYKVSNRFSGVPDRFSGSGSGTDFTLKISRVEAEDLGVYFCSQTRHVPYTFGGGTKLEIK
notes: Mouse antibody
In experiment [1], B1 displayed a Kd of 1.14 nM, a koff of 0.000274 s⁻¹ and an association rate constant (kon) of 239000 M⁻¹ s⁻¹. In experiment [2], the Kd stood at 1.31 nM, the koff turned out to be 0.000392 s⁻¹ and the kon came to 299000 M⁻¹ s⁻¹.

B2: Chimeric 2E7 antibody (2E7c) (antibody, human IgG1, V domains shown)
VH: EVKLVESGGGLVQPGGSLKLSCAVSGFTFSDNGMAWVRQAPRKGPEWIAFISNLAYSIDYADTVTGRFTISRDNAKNTLYLEMSSLRSEDTAMYYCVSGTWFAYWGQGTLVTVSA
VL: DVVLTQTPLSLPVSLGDQASISCRVSQSLLHSNGYTYLHWYLQKPGQSPKLLIYKVSNRFSGVPDRFSGSGSGTDFTLKISRVEAEDLGVYFCSQTRHVPYTFGGGTKLEIK
notes: Parent murine V regions on human IgG1 (L235A, G237A) and human C kappa; also called 2E7c Chimera; not shown: human IgG1 heavy chain constant region, Fc mutated (L235A, G237A); human C kappa constant region
Turning to B2, the results for the EC50 in experiment [3], in experiment [9] and in experiment [11] were 0.043 mg/L, 0.044 mg/L and 0.033 mg/L, respectively. The figures for the IC50 in experiment [4], in experiment [7] and in experiment [8] were 0.052 mg/L, 1.29 mg/L and 1.31 mg/L, respectively. The Kd in experiment [5] was determined as 0.0435 nM; in [6], 0.0481 nM; in experiment [10], 0.0458 nM.

B3: Humanised 2E7 variant H1L1 (antibody, human IgG1, kappa, V domains shown)
VH: EVQLVESGGGLVQPGGSLRLSCAASGFTFSDNGMAWVRQAPGKGLEWVSFISNLAYSIDYADTVTGRFTISRDNAKNSLYLQMNSLRAEDTAVYYCVSGTWFAYWGQGTLVTVSS
VL: DIVMTQSPLSLPVTPGEPASISCRVSQSLLHSNGYTYLHWYLQKPGQSPQLLIYKVSNRFSGVPDRFSGSGSGTDFTLKISRVEAEDVGVYYCSQTRHVPYTFGGGTKVEIKR
notes: Human IgG1 with L235A and G237A, human kappa; also called L1+H1
Consider B3, for which the results for the EC50 in experiment [3], in [9] and in [11] were 0.051 mg/L, 0.047 mg/L and 0.035 mg/L, respectively. Also, the IC50 in experiment [4] was 0.114 mg/L; in experiment [7] it was 1.76 mg/L; in experiment [8] it was 1.62 mg/L; in experiment [12], 0.14 mg/L. Besides, the figures for the Kd in experiment [5], in experiment [6] and in experiment [10] were 0.0922 nM, 0.095 nM and 0.0936 nM, respectively.

B4: H2L1 Fab His, H2 heavy chain truncated at position 224 with a C-terminal 6x histidine tag including histidine at position 224 (Fab, V domains shown)
VH: EVQLVESGGGLVQPGGSLRLSCAVSGFTFSDNGMAWVRQAPGKGLEWVSFISNLAYSIDYADTVTGRFTISRDNAKNSLYLQMNSLRAEDTAVYYCVSGTWFAYWGQGTLVTVSS
VL: DIVMTQSPLSLPVTPGEPASISCRVSQSLLHSNGYTYLHWYLQKPGQSPQLLIYKVSNRFSGVPDRFSGSGSGTDFTLKISRVEAEDVGVYYCSQTRHVPYTFGGGTKVEIKR
notes: Recombinant Fab from CHOK1 culture supernatant
B4 came in with an EC50 in [13] of 0.227 mg/L.

B5: H2L1 Fab cys, H2 heavy chain truncated at the second cysteine in the hinge region at residue 226 (Fab, V domains shown)
VH: EVQLVESGGGLVQPGGSLRLSCAVSGFTFSDNGMAWVRQAPGKGLEWVSFISNLAYSIDYADTVTGRFTISRDNAKNSLYLQMNSLRAEDTAVYYCVSGTWFAYWGQGTLVTVSS
VL: DIVMTQSPLSLPVTPGEPASISCRVSQSLLHSNGYTYLHWYLQKPGQSPQLLIYKVSNRFSGVPDRFSGSGSGTDFTLKISRVEAEDVGVYYCSQTRHVPYTFGGGTKVEIKR
notes: Recombinant Fab from CHOK1 culture supernatant; also called (b) H2L1 Fab cys
With B5, in experiment [13], the midpoint of the response, the EC50, lay at 0.226 mg/L. The EC50 values of the last two molecules are within 1.5-fold of each other.

B6: H2L1 Fab, H2 heavy chain truncated at residue 224 of the hinge region (Fab, V domains shown)
VH: EVQLVESGGGLVQPGGSLRLSCAVSGFTFSDNGMAWVRQAPGKGLEWVSFISNLAYSIDYADTVTGRFTISRDNAKNSLYLQMNSLRAEDTAVYYCVSGTWFAYWGQGTLVTVSS
VL: DIVMTQSPLSLPVTPGEPASISCRVSQSLLHSNGYTYLHWYLQKPGQSPQLLIYKVSNRFSGVPDRFSGSGSGTDFTLKISRVEAEDVGVYYCSQTRHVPYTFGGGTKVEIKR
notes: Recombinant Fab from CHOK1 culture supernatant; also called (a) H2L1 Fab
On to B6, for which the EC50 in experiment [13] turned out to be 0.239 mg/L.

B7: Humanised 2E7 variant H3L1 (antibody, human IgG1, kappa, V domains shown)
VH: EVQLVESGGGLVQPGGSLRLSCAASGFTFSDNGMAWVRQAPGKGLEWISFISNLAYSIDYADTVTGRFTISRDNAKNSLYLQMNSLRAEDTAVYYCVSGTWFAYWGQGTLVTVSS
VL: DIVMTQSPLSLPVTPGEPASISCRVSQSLLHSNGYTYLHWYLQKPGQSPQLLIYKVSNRFSGVPDRFSGSGSGTDFTLKISRVEAEDVGVYYCSQTRHVPYTFGGGTKVEIKR
notes: Human IgG1 with L235A and G237A, human kappa; also called L1+H3
Turning to B7, the EC50 in experiment [3] stood at 0.055 mg/L; in experiment [9] it was 0.04 mg/L; in [11] it was 0.044 mg/L. Besides, the IC50 in experiment [4] was determined as 0.069 mg/L; in [7] it was 1.39 mg/L; in experiment [8], 1.53 mg/L; in [12] it was 0.115 mg/L. Also, the Kd in [5] stood at 0.0572 nM; in [6], 0.076 nM; in experiment [10], 0.0666 nM.
